Assay results as given in the DeepSol protein solubility set.

Assay: soluble on expression in E. coli; label from the status in PepcDB or PDB records
In the case of “DDDDEEEDDFVYFNFNKEKEEKNKNSIHPNDFQIYNSLKYKYHPEYQYLNIIYDIMMNGNKQSDRTGVGVLSKFGYIMKFDLSQYFPLLTTKKLFLRGIIEELLWFIRGETNGNTLLNKNVRIWEANGTREFLDNRKLFHREVNDLGPIYGFQWRHFGAEYTNMYDNYENKGVDQLKNIINLIKNDPTSRRILLCAWNVKDLDQMALPPCHILCQFYVFDGKLSCIMYQRSCDLGLGVPFNIASYSIFTHMIAQVCNLQPAQFIHVLGNAHVYNNHIDSLKIQLNRIPYPFPTLKLNPDIKNIEDFTISDFTIQNYVHHEKISMDMAA”, the “soluble on expression in E. coli” value is reported as “soluble”.
For “DDDGEHGGRRAALVVTDPLTRTECSACHMAYPAALLPARSWTALMADLPNHFGEDASLDEASRGQIESYLVANAADSSGAGRALRGLVQTDTPLRISELPWFKRKHADEVSPRMLEKARSMSNCAACHTGAERGLFDDD”, the “soluble on expression in E. coli” value was “soluble”.
For “DDFVSLGTSGWHARVVSTVSDPSEVRQFALPDGGILRIASVLSVGGTADWARSVLLPGVSAKEADALMLQRPRLATGLLSLPSIQGESFPVRSHSVGGCILGMRGNQDPLTLYTAVIEGICMTLAHDIKPGGILPATGGGARSVPWMRILASVTNRNIHVTVSEDAALHGAASLAAYATSAEYLPTLAARAIVEIEPEPEVVASFEPLIAKHLELFRFAAALSY”, the “soluble on expression in E. coli” value was “not soluble”.
For “DDIKVAVVGAMSGPIAQWGDMEFNGARQAIKDINAKGGIKGDKLVGVEYDDACDPKQAVAVANKIVNDGIKYVIGHLCSSSTQPASDIYEDEGILMISPGATNPELTQRGYQHIMRTAGLDSSQGPTAAKYILETVKPQRIAIIHDKQQYGEGLARSVQDGLKAANANVVFFDGITAGEKDFSALIARLKKENIDFVYYGGYYPEMGQMLRQARSVGLKTQFMGPEGVGNASLSNIAGDAAEGMLVTMPKRYDQDPANQGIVDALKADKKDPSGPYVWITYAAVQSLATALERTGSDEPLALVKDLKANGANTVIGPLNWDEKGDLKGFDFGVFQWHADGSSTKAK”, the “soluble on expression in E. coli” value was “soluble”.
For “DEFQWKGLPVVKSGLDVGGMPTGTRYHRSPAWPEEQPGETHAPAPFGSGDKRYTFSQTEMLVNGLKPYTEPTAGVPPQLLSRAVTHVRSYIETIIGTHRSPVLTYHQACELLERTTSCGPFVQGLKGDYWDEEQQQYTGVLANHLEQAWDKANKGIAPRNAYKLALKDELRPIEKNKAGKRRLLWGCDAATTLIATAAFKAVATRLQVVTPMTPVAVGINMDSVQMQVMNDSLKGGVLYCLDYSKWDSTQNPAVTAASLAILERFAEPHPIVSCAIEALSSPAEGYVNDIKFVTRGGLPSGMPFTSVVNSINHMIYVAAAILQAYESHNVPYTGNVFQVETIHTYGDDCMYSVCPATASIFHTVLANLTSYGLKPTAADKSDAIKPTNTPVFLKRTFTQTPHGIRALLDITSITRQFYWLKANRTSDPSSPPAFDRQARSAQLENALAYASQHGPVMFDTVRQIAIKTAQGEGLVLVNTNYDQALATYNAWFIGGTVPDPVGHTEGTHKIVFEME”, the “soluble on expression in E. coli” value was “soluble”.
For “DERGEVVDGDKLIGALAMHLKNSHTLEKPLAVATVMSNLALEEFLAKAKIKLLRAGVGDKYVLEMMQKEGANFGGEQSGHLIFSDFAKTGDGLVSALQTMAFVLRSGERASRALNIFDLY”, the “soluble on expression in E. coli” value was “not soluble”.
For “DFDFEGNLALFDKAAVFEEIDTYERRSGTRSRGIPNERPTRYRHDENILESEPIVYRRIIVPHNVSKEFCTDSGLVVPSISYELHKKLLSVAEKHGLTLERRLEMTGVCASQMALTLLGGPNRLNPKNVHQRPTVALLCGPHVKGAQGISCGRHLANHDVQVILFLPNFVKMLESITNELSLFSKTQGQQVSSLKDLPTSPVDLVINCLDCPENVFLRDQPWYKAAVAWANQNRAPVLSIDPPVHEVEQGIDAKWSLALGLPLPLGEHAGRIYLCDIGIPQQVFQEVGINYHSPFGCKFVIPLHSA”, the “soluble on expression in E. coli” value was “soluble”.
In the case of “DFKLDFKDIKGQEKAKRACMIAALGMHNILFEGSPGSGKSMCAKRLVYIMPPQSLSEILMQNAYMSLDSKDCEFTKIRAFRHPHHTSTRASIFGGGTKNARIGEVALANGGVLFFDEFPHFNKQIIESLREPLEDHKIHISRVNSKITYETKFSFIAAQNPCPCGNL”, the “soluble on expression in E. coli” value is reported as “not soluble”.
For “DGFRIAFISDLHYKSLFKEKGLESLVRLLNAQHADVLLMGGDYQEGCQYVPELFAALAKVKTPMGTYGVMGNNDYERCHDEIIREMQRYGMRPLEHQIDTLRRDGAQIILAGVRNPFDLANNGVSPTLSLSPSDFVILLVHTPDYAEDVSVANSDLVLAGHTHGGQVRILGYAPIIPSHYGSRF”, the “soluble on expression in E. coli” value was “not soluble”.
In the case of “DIRPSKLLTWCQQQTEGYQHVNVTDLTTSWRSGLALCAIIHRFRPELINFDSLNEDDAVENNQLAFDVAEREFGIPPVTTGKEMASAQEPDKLSMVMYLSKFYELFRGTPLRPV”, the “soluble on expression in E. coli” value is reported as “soluble”.
For “DKIIMDPHAVLGPVDPQLGQYPAPSIVRAVEKKGVDKVDDQTLILADVAEKAIRQVRDFIFNLLKDKYGEEKAKELAQVLTEGRWTHDYPITVEEAKKLGLNVSTDVPEEVYALMELYKQPIRQRGTVEFVPYPMKQEGK”, the “soluble on expression in E. coli” value was “not soluble”.
With “DKKIMVIVNTVDKAITLYEKLRDLSPCLIHSRFKIGDRDEKLRKECNIIIATQVIEVGVNISSEVMITEQAPITSIVQRVGRLLRDNKKDKGELYIWKSGNYYPYDKDEVENTIKELESKKNDISL” the “soluble on expression in E. coli” value was “not soluble”.
For “DLKQREQALEDSRQRYQTLLQAAPDPIFVADAETGEIVEANAAAEELRGQPRDDIIGRHQTELHPEEAGGLYEDVFEQAFDDASTITELPDGTQPELATPDGETVPIEISAAAVSLPDGPVLFGVFRDVS”, the “soluble on expression in E. coli” value was “not soluble”.
For “DLYFQGGSGMQCEEKLEVFENGFKDEKFNVEVKFYGNDARKVLLAMIYELYLPEYGREYVYPFECAKEFWNIYLEGEEIQDEEFQLKPIKFTSEQVIKKLQEEIKKIKPPLEIKIEEAKIYKTKEGYLAVGNYFILDPRGRLFIFNKPSIANKILKYIWKW”, the “soluble on expression in E. coli” value was “soluble”.
In the case of “DNIITGRMKPLHWREMKEVDPNRVTLIDARPRQAYEVEHIPGAISMPVEEIRARIGEIPHDKPIYVYCAVGMRGYFASNILRQCGFSNVRNLIGGYRLYSTITADYSSAGQPATAQLPAKDSPSSHTQVPE”, the “soluble on expression in E. coli” value is reported as “not soluble”.
With “DNNRWIPIKPGTDSALVLGMIQWIIENQRYNKTFLAQPGANAMKRAGTAHWCNATHLVISDEQHPRNGTFLRASDLNLPFEGEALSDSDPYVIVEEQSGQFGVHTQTEEATLFVDKTVSLASGKVRVKSSLQRLKEEAFKYSLAFYSQQCEIPVEQIAELAKRFTSCGTKAVVDTHGGNMHTNGFYNSFTIMMLNALIGNINMKGGAMAKAGGYPTSAAGPRYDFTKFAGKVGPKGVFLSRSKFPYHKTSEYKRRVEAGKSPYPTRAPWYPFAAPLLTEHLSAAIDGYPYRVKAWINHMANPMYGVPGLKTLLEDKLKDPKQLGLIVSVDAFINETTALSDYIVPDTVTYESWGMATPWHDVPVKTITARWPIVEARTEKTADGRSICLENFLIDVAKKMQLGGFGDNAIQDAQGNWHALHSAEDFYLRSAANLAYVKGGVPEVSAEDIAWSGLERLMPAMQSTLTADEMKRVAFIFARGGRFENATEAYQGEQMKHKWTRPVAIWNERVGSARNTMTGDFYTGCPTWHPQKLADGTPMEEQFPSSEWPFSLTNFKSNIHSAVSNLSPRLNSIKGVNPVYIHPIDAERAGIKTGDEFVIETPSASTKALAMIVSGIRPGTLGFEHGFGHTELGQRSHWIGDKQQPVKTRSQDGVNINDIGLIDPTREGKGVLLDWVVGAAARQSLPAKIRKA” the “soluble on expression in E. coli” value was “not soluble”.
With “DPFSNLTELANALKEKYQLKNVTVAFSQTNDYSEISKQISQSAAEYLEEIIHDDDILGVSWGTTMYKIAQKLSPQKAEIKVVQLKGGVSHSDVNTYAAETLALFGAAYDTAPVSLPLPVVLDNPLAKQMVEADRHIKNIIELGKKANIAIFTVGTVREEALLFRLGYFSDEEKIRLKEKAVGDICSRFFTINGEIADEKMNERTIGIDLQDLKQKETAILVAGGERKIKAIHGALRGGYANHFITDQYTAKQLLEQNFS” the “soluble on expression in E. coli” value was “not soluble”.
With “DPIGHLNKLPVAVVNSDTGVTKEGKTINAGEQITHSLVDQQQAKFIEVSADQARKGIADGTYYFAIEFPTDFSQAATSVKDPQPHQAKLNAVYNNANGFLATMLGNQVVGRVLAAVNENLGSQVANQLLVGFNTIGQGLGAAADGAGQLADGSHKAHDGADKLADGSTQLNNGLQQANDGAHKLYDGAGQLDQGIHTASNGADALADGLTKLNAATDTLGNGAGQVSAGVDKLVGVAQQASDAQAQLTVPLVNLSAQLRATGIPQAIDLANSADGIINSINAAGIGPQSDMMTQLSKLRNGASEIHRQLSDPTAQYRAGINSATEGAQKLSTGLHQLSDGSEKLVIGTKTLADGTTKLSAGSQQLTVGASQLSSGLVRLDEGASELSLKLGESKDKIPQFPDDTIADSARNVSTPVAENVARDSLS” the “soluble on expression in E. coli” value was “not soluble”.
For “DQALSGQLRIGASDTIGNQVAPYLLSEFRQQTNHRSQSLFISNSAQICDMLTDYELDIALIEGKTLHPELQSTQFSEDEMCVICAPDYPAAHEGPVNLTELENSEWILREAGSGSREFFMRVVAPRLEHWHEAFQLNTTEAL”, the “soluble on expression in E. coli” value was “not soluble”.
With “DRILAQERLCRSEERYRLLFEEMMSGCALHELICDRDGNPADYRFLAVNGAFERMTGLRAADIVGKTVLEVMPGTERHWIERYGDVALSGRSAEFEEYAGAIGRYYSVRAYCPERGKFAAVFNDIT” the “soluble on expression in E. coli” value was “not soluble”.
For “DRKMNRKMISIVENDGNGFREVFRYDYERKNFVPDNLKEITSIQLERSRELLGWSRDKLYREIENRLLLIRGLAEKGVYDYDTLARELVKYYTNGD”, the “soluble on expression in E. coli” value was “not soluble”.
For “DRSVIYPSEYFFLKGGNAFWRFGDSMEAAFQTLPPYTATADKHLILQTSYRASRLLVNFLPFVFLKTNDEALHFKARWDMVSRKPYLEMGYSES”, the “soluble on expression in E. coli” value was “not soluble”.
In the case of “DSLGNLVDGDQIIYIIAKDRHQRGVLHGGVVGTLMSNYGLELAITSLGVPFQRSKVGDRYVLETLREKDWKIGGETSGHIVCLDKTTTGDGIVAALQVLSIMVKQNKALHELTAGIQLL”, the “soluble on expression in E. coli” value is reported as “not soluble”.
In the case of “DTIRWATEQAIANGTGEREYIKKLEPMLKELGWWGKAKDENGNEVQLGSPRRLRTILRTNKITAYHAARYAQQMENVDEQPYWRYVAVNDSRTRASHLALHGKIYRADDPIWQTMYPPNDWGCRCRVE”, the “soluble on expression in E. coli” value is reported as “not soluble”.
In the case of “DTLANAVYLRLMTPLGGWWADPTLGSRLHELSRSKDSNRIDLLACQYAEQALQPLLQDGRASRVQVSSQRQGPGRLLLNIEVAETGGHIRHFQHQVRI”, the “soluble on expression in E. coli” value is reported as “not soluble”.
For “DTTYGCPGEWRCLKAAALGEGKFDEPVRVIGFVRCECPGNTLVPNIGMTMKLSEVKPDAIYFSSCMLRDPGCPYRSAEEWAKIVENAFQIPVKLGTH”, the “soluble on expression in E. coli” value was “not soluble”.
With “DVQINIRNNVYIPPCTINNGQNIVVDFGNINPEHVDNSRGEVTKTISISCPYKSGSLWIKVTGNTMGGGQNNVLATNITHFGIALYQGKGMSTPLTLGNGSGNGYRVTAGLDTARSTFTFTSVPFRNGSGILNGGDFRTTASMSMIYN” the “soluble on expression in E. coli” value was “soluble”.
With “DVQLQESGPGLVKPSQSLSLTCTVTGYSITSLYAWNWIRQFPGNKLEWMGYINYSGYTSYNPSLKSRISITRDTSKNQFFLQLHSVTTEDTATYSCTRGVDYFAMDYWGQGASVTVSSAKTTAPSVYPLAPVCGDTTGSSVTLGCLVKGYFPEPVTLTWNSGSLSSGVHTFPALLQSDLYTLSSSVTVTSNTWPSQSITCNVAHPASSTKVDKKIVPRD” the “soluble on expression in E. coli” value was “soluble”.
For “DWEVETGERYLPKLPECKIDNSKYQHPIQVVPSGPGMPEYLIYQVLTLAINQANRSVRITTPYFVPNTDLLETLKMTAQRGIDVELIIPHKNDSLMVQWASRAFYSELLAAGVKIYEFYGGLLHTKSVVIDDQFCLVGTVNMDMRSLWLNFEVTLAVDDEEFTKQLSWLQDGYIKQSHPVVLDEWEKRSLYSRFLERVFYLFNPLL”, the “soluble on expression in E. coli” value was “not soluble”.
